Experimental data as given in the nanobody polyreactivity screen of Harvey et al. (2022).

Experiment: yeast display, Sf9 membrane polyspecificity reagent, FACS + sequencing; frameworks hold sequencing errors
Procedure, shortened: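 Nanobodies from a synthetic yeast display library (Saccharomyces cerevisiae BJ5465), induced 36–48 hours with galactose, were stained 1 hour at 4 °C with 10% biotinylated, detergent-solubilized Sf9 membrane reagent, enriched on streptavidin microbeads, then FACS-sorted. Anti-HA (expression) and streptavidin (reagent binding) fluorescence set low and high (top ~1%) gates. Polyreactivity labels come from the gate of origin. Genes were colony-PCR amplified, MiSeq 2 × 250 sequenced and filtered by CDR length.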

| Sequence | polyreactivity (PSR sort gate) |
| --- | --- |
| QVQLVESGGGLVQAGGSLRLSCAASGRIIRSYAMGRYRQAPRKERELVDAITTGGRTYYADSVKGRFTISRDNAKNTVYLQMNSLKPEDTAVYYCNSALVYRGTDTNDYWGQGTQVTVSS | high polyreactivity |
| QVQLVESGGGLVQAGGSLRLSCAASGRIIRWYAMAWYRQAPGKERELVAAITWRGGSTDYADSVKGRFTISRDNAKNTVYLQMNSLKPEDTAVYYCNAAGFKTSWYYYGDWYDYWGQGTQVTVSS | high polyreactivity |
| QVQLVESGGGLVQAGGSLRLSCAASGRIISSYAMGWYRQAPGKERELVAAITSSGGSTYYADSVKGRFTISRDNAKNTVYLQMNSLKPEDTAVYYCAARVFARYYTAYGVETRREEDYWGQGTQVTVSS | low polyreactivity |
| QVQLVESGGGLVQAGGSLRLSCAASGRIITAYYAMGWYRQAPGKERELVASISSSGTSTYADSVKGRFTISRDNAKNTVYLQMNSLKPEDTAVYYCATRKLRTRRYDYGYWGQGTQVTVSS | low polyreactivity |
| QVQLVESGGGLVQAGGSLRLSCAASGRIITRYAMGWYRQAPGKERELVAAISSGGSTYYADSVKGRFTISRDNAKNTVYLQMNSLKPEDTAVYYCARGWSGAYAGGYWGQGTQVTVSS | high polyreactivity |
| QVQLVESGGGLVQAGGSLRLSCAASGRIITYNAMGWYRQAPGKERELVAAISTTGGRTYYADSVKGRFTISRDNAKNTVYLQMNSLKPEDTAVYYCNAVLKRPLAYHVTYDYWGQGTQVTVSA | high polyreactivity |
| QVQLVESGGGLVQAGGSLRLSCAASGRIIVLYAMGWYIQAPGKERELVASIRSGGSTNYADSVKGRFTISRDNAKNTVYLQMNSLKPEDTAVYYCAARIRSVVPFDMDYWGQGTQVTVSS | low polyreactivity |
| QVQLVESGGGLVQAGGSLRLSCAASGRIIVRNAMGWYRQAPGKERELVAAISGSGSRTYYADSVKGRFTISRDNAKNTVYLQMNSLNPEDTAVYYCAASGYWPFRSGFGYWGQGTQVTVSS | high polyreactivity |
| QVQLVESGGGLVQAGGSLRLSCAASGRIIYGNALGWYRQAPGKERELVAAITSGGSTNYADSVKGRFPISRDNAKNTVYLQMNSLIPEDTAVYYCNAVVYSAYRYEYWGQGTQVTVSS | low polyreactivity |
| QVQLVESGGGLVQAGGSLRLSCAASGRIIYIYAMGWYIQAPGKERELVAAITASSGSTNYADSVKGRFTISRDNAKNTVYLQMNSLKPEDTAVYYCAAAPSRTLLRQSKYYYWGQGTQVTVSS | low polyreactivity |
| QVQLVESGGGLVQAGGSLRLSCAASGRIIYKNAMGWYRQAPGKERELVAAITSSGGSTYYADSVKGRFTISRDNAKNTVYLQMYSLKPEDTAVYYCATDWPHWRKVYWFDYWGQGTQVTVSS | low polyreactivity |
| QVQLVESGGGLVQAGGSLRLSCAASGRIIYNYAMGWYRQAPGKERELVAAISRGGSTNYADSVKGRFTISRDNAKNTVYLQMNSLKPEDTAVYYCAAWTYVWTRGGSPVTVQRYNYWGQGTQVTVSS | high polyreactivity |
| QVQLVESGGGLVQAGGSLRLSCAASGRIIYSYAMGWYRQAPGKERELVATITASGGRTYYADSVKGRFTISRDNAKNTVYLQMHSLKQEDSAVYYCNARYYGSFRRRYDYWGQGTQVTVSS | high polyreactivity |
| QVQLVESGGGLVQAGGSLRLSCAASGRIIYTYAMGWYRQAPGKERELVAAISWSGGSTYYADSVKGRFTISRDNAKNTVYLQMNSLKPEDTAVYFCNAAYYGYENLSKRGYWGQGTQVTVSS | high polyreactivity |
| QVQLVESGGGLVQAGGSLRLSCAASGRILAAYTMGWYRQAPGKERELVAAITRGGSRTNYADSVKGRFTISRDNAKNTVYLQMNSLKPEDTAVYYCAATWSAYRRWGYDYWGQGTQVTVSS | high polyreactivity |
| QVQLVESGGGLVQAGGSLRLSCAASGRILASYAMGWYRQAPGKECELVAAIRYRGSTSYADSVKGRFTISRDNAKNTVYLQMNSLKPEDTAVYYCAAKWHVRGRGARYRYDYDYWGQGTQVTVSS | low polyreactivity |
| QVQLVESGGGLVQAGGSLRLSCAASGRILDWYAMGWYRQAPGTERELVASIYSTGGSSYYADSVKGRFTISRDHAKNTVYLQMNRLKPDDTAVYYCAAVIRSQDGRGYDYWGHGTQVTVSS | high polyreactivity |
| QVQLVESGGGLVQAGGSLRLSCAASGRILGFYAMGWYRQAPGKERELVARINWSGTRTYYADSVKGRFTISRDNAKNTVYLQMNSLKPEDTAVYYCAARRYYPYDYWGQGTQVTVSS | high polyreactivity |
| QVQLVESGGGLVQAGGSLRLSCAASGRILGKYAMGWYRQAPGKERELVAAIRLRGGSPYYADSVKGRFTISRDNAKNTVYLQMNSLKPDDTAVYYCAARYWDRSQAYNYWGQGTQVTVSS | high polyreactivity |
| QVQLVESGGGLVQAGGSLRLSCAASGRILGRYAMGWYRQAPGKERELVATITSGDDTNYADSVKGRFTISRDNAKNTVYLQMNSLKPEDTAVGYWGQGTQVTVSS | low polyreactivity |
| QVQLVESGGGLVQAGGSLRLSCAASGRILGSYAMGWYRQAPGKERELVAAISRGGGRTYYADSVKGRFTISRDNAKNTVYLQMNSLNPEDTAVYYCNAPVTGSSSYFSQHFDYWGQGTQVTVSS | high polyreactivity |
| QVQLVESGGGLVQAGGSLRLSCAASGRILGWNAMGWYSPAPGKVRELVAGISSSGGSTYYADSVKGRFTISRHNAKNTVNIQMNSLKPEDTAVYYCAAVVWLSSANRRYYYWGQGTQVTVSS | high polyreactivity |

| Sequence | polyreactivity (PSR sort gate) |
| --- | --- |
| QVQLVESGGGLVQAGGSLRLSCAASGRILHRYVMGWNRQAPGKERELVAAISSGGSTTYADSVKGRFTISRDNAKNTVYLQMNSLKPEATAVYYCAKYSFWRTSRMDFWGQGTQVTVSS | low polyreactivity |
| QVQLVESGGGLVQAGGSLRLSCAASGRILKRNAMGWYRQSPGKERELVAAISWSTGTTYYADSVKGRFTISRDNAKNTVYLQMNSLKPEDTAVYYCAKQIVSGRRVDRNDYWGQGTQVTVSS | low polyreactivity |
| QVQLVESGGGLVQAGGSLRLSCAASGRILLYNAMGWYRQAPGKERELVAAISRSGGSTYYADSVKGRFTISRDNAKNTVYLQMNSLKPEDTAVDYCAAQHGYTRYYYWGQGTQVTVSS | high polyreactivity |
| QVQLVESGGGLVQAGGSLRLSCAASGRILNINAMGWYRQAPGKERELVAAITWRGGRTFYADSVKGRFTISRDNAKNTVYLQMNSLKPEDTAVYYCAASSNTWYPTGYYWGQGTQVTVSS | high polyreactivity |
| QVQLVESGGGLVQAGGSLRLSCAASGRILPFNAMGWYRPAPGKERELVAAIRWRGSSTYYADSVKGRFTISRDNAKNTVYLQMNSLKPEDTAVYYCAAPSSVRGKVISADYGYWGQGTQVTVSS | high polyreactivity |
| QVQLVESGGGLVQAGGSLRLSCAASGRILPGYAMGWYRQAPGKERELVAAIRGNGDSTYYADSVKGRFTISRDNAKNTVYLQMNSLKPEDTAVYYCAARRVSTIQRDSYRGRKYGYWGQGTQVTVSS | low polyreactivity |
| QVQLVESGGGLVQAGGSLRLSCAASGRILPLYAMGWYRQAPGKERELVARIDSGGSTNYADSVKGRFTISRDNAKNTVYLQMNSLKPEDTAVYYCAAVVTAQAFAYFTYGYDYWGQGTQVTVSS | low polyreactivity |
| QVQLVESGGGLVQAGGSLRLSCAASGRILPSNAMGWYRQAPGKERELVAAIRSGDRTYYADSVKGRFTISRDNAKNTVYLQMNSLKPEDTAVYYCAAFYHHYYRYDYWGQGTQVTVSS | low polyreactivity |
| QVQLVESGGGLVQAGGSLRLSCAASGRILPSNAMGWYRQAPGKERELVAGITSGGSTDYADSVKGRFTISRDNAKNTVYLQMNSLKPEDTAVYYCAAHPAYRDSWGEYDYWGQGTQVTVSS | low polyreactivity |
| QVQLVESGGGLVQAGGSLRLSCAASGRILPSNAMGWYRQATGNERELVATISSSGGDTYYADSVKGRFTNSRDNAKNTVYLQMNSLKPEDTAVYYCAADSTWEGGYKYEYWGQGTQVTVSS | low polyreactivity |
| QVQLVESGGGLVQAGGSLRLSCAASGRILPWYAMGWYRQAPGKERELAARIRSTDSTNYADSVKGRFTISRDNAKNTVYLQMNSLKPEDTAVYYCAKVQWGFPYAWLGSDYWGQGTQVTVSS | low polyreactivity |
| QVQLVESGGGLVQAGGSLRLSCAASGRILPWYAMGWYRQAPGKERELVAGISSNGGSTYYADSVKGRFTISRDNAKNTVYLQMNSLKPEDSAVYYCAALFWYWRHYPSDYWGQGTQVTVSS | high polyreactivity |
| QVQLVESGGGLVQAGGSLRLSCAASGRILPYYAMGWYRPAPGKERELVAALTGGGGSTYYADSVKGRFTISRDNAKNTVYLQMNSLKPEDTAVYYCAKPRGRASLALYRFSLYYYWGQGTQVTVSS | high polyreactivity |
| QVQLVESGGGLVQAGGSLRLSCAASGRILRQYAMGWYRQAPGKERELVAAITSSGGSTYYADSVKGRFTNSRDNAKNTVYLQMNSLKPEDTAVYYCAARYYPSGYRKKMYYWGQGTQVTVSS | high polyreactivity |
| QVQLVESGGGLVQAGGSLRLSCAASGRILRWNAMGWYRQAPGKEREMVAAIDWRGGSTYYADSVKGRFTISRDNAKNTVYLQMNSLKPEDTAVYYCAVDYYPYEVSYVRMDYWGQGTQVTVSS | low polyreactivity |
| QVQLVESGGGLVQAGGSLRLSCAASGRILSANAMGWYRQAPGKERELVAAITYSGDNTYYADSVKGRFTISRDNAKNTVYLQMNSLKPEDTAVYYCAREFQVDGGEEDYWGQGTQVTVSS | low polyreactivity |
| QVQLVESGGGLVQAGGSLRLSCAASGRILSFYAMGWYRQAPGKEREFVATITWSGGSTYADSVKGRFTISRDNANNSVYLQMNSLKPEDTAVYYCNAELSNYKYDYWGQGTHVTVSS | low polyreactivity |
| QVQLVESGGGLVQAGGSLRLSCAASGRILSGTPMGLYRQAPRKERELVAAITNAGITKYADSVKGRFTISRDNAKNTVYLQMNSLKPEDTAVYYCATDRYAYKLYDYWGQGTKVTVSS | low polyreactivity |
| QVQLVESGGGLVQAGGSLRLSCAASGRILSHYAMGWYRQAPGKERELVASISGSDGSTYYADSVKGRFTISRDNAKNTVYLQMNSLKPEDTAVYYCAVDSYQTGVYFYYVYWDFDLGYWGQGTQVTVSS | low polyreactivity |
| QVQLVESGGGLVQAGGSLRLSCAASGRILSPYAMGWYRPAPGKERELVAAISRSGGSTYYADSVKGRFTISRDNAKNTVYLQMNSLKPEDTAVYYCNAVIAWYRSDEYDYWGQGTQVTVSS | high polyreactivity |
| QVQLVESGGGLVQAGGSLRLSCAASGRILSSYAMGWYRQAPGKERELVARISYSGGRTYYADSVKGRFTISRDNAKNTVYLQMNSLKPEDTAVYYCAAVSRVHFSYIYDYWGQGTQVTVSS | high polyreactivity |
